From IntAct's records for PubMed 20080774

B1: Nuclear factor of activated T-cells 5 (Homo sapiens), O94916-1 (parent)
chain: MPSDFISLLSADLDLESPKSLYSRESVYDLLPKELQLPPSRETSVASMSQTSGGEAGSPPPAVVAADASSAPSSSSMGGACSSFTTSSSPTIYSTSVTDSKAMQVESCSSAVGVSNRGVSEKQLTSNTVQQHPSTPKRHTVLYISPPPEDLLDNSRMSCQDEGCGLESEQSCSMWMEDSPSNFSNMSTSSYNDNTEVPRKSRKRNPKQRPGVKRRDCEESNMDIFDADSAKAPHYVLSQLTTDNKGNSKAGNGTLENQKGTGVKKSPMLCGQYPVKSEGKELKIVVQPETQHRARYLTEGSRGSVKDRTQQGFPTVKLEGHNEPVVLQVFVGNDSGRVKPHGFYQACRVTGRNTTPCKEVDIEGTTVIEVGLDPSNNMTLAVDCVGILKLRNADVEARIGIAGSKKKSTRARLVFRVNIMRKDGSTLTLQTPSSPILCTQPAGVPEILKKSLHSCSVKGEEEVFLIGKNFLKGTKVIFQENVSDENSWKSEAEIDMELFHQNHLIVKVPPYHDQHITLPVSVGIYVVTNAGRSHDVQPFTYTPDPAAAGALNVNVKKEISSPARPCSFEEAMKAMKTTGCNLDKVNIIPNALMTPLIPSSMIKSEDVTPMEVTAEKRSSTIFKTTKSVGSTQQTLENISNIAGNGSFSSPSSSHLPSENEKQQQIQPKAYNPETLTTIQTQDISQPGTFPAVSASSQLPNSDALLQQATQFQTRETQSREILQSDGTVVNLSQLTEASQQQQQSPLQEQAQTLQQQISSNIFPSPNSVSQLQNTIQQLQAGSFTGSTASGSSGSVDLVQQVLEAQQQLSSVLFSAPDGNENVQEQLSADIFQQVSQIQSGVSPGMFSSTEPTVHTRPDNLLPGRAESVHPQSENTLSNQQQQQQQQQQVMESSAAMVMEMQQSICQAAAQIQSELFPSTASANGNLQQSPVYQQTSHMMSALSTNEDMQMQCELFSSPPAVSGNETSTTTTQQVATPGTTMFQTSSSGDGEETGTQAKQIQNSVFQTMVQMQHSGDNQPQVNLFSSTKSMMSVQNSGTQQQGNGLFQQGNEMMSLQSGNFLQQSSHSQAQLFHPQNPIADAQNLSQETQGSLFHSPNPIVHSQTSTTSSEQMQPPMFHSQSTIAVLQGSSVPQDQQSTNIFLSQSPMNNLQTNTVAQEAFFAAPNSISPLQSTSNSEQQAAFQQQAPISHIQTPMLSQEQAQPPQQGLFQPQVALGSLPPNPMPQSQQGTMFQSQHSIVAMQSNSPSQEQQQQQQQQQQQQQQQQQSILFSNQNTMATMASPKQPPPNMIFNPNQNPMANQEQQNQSIFHQQSNMAPMNQEQQPMQFQSQSTVSSLQNPGPTQSESSQTPLFHSSPQIQLVQGSPSSQEQQVTLFLSPASMSALQTSINQQDMQQSPLYSPQNNMPGIQGATSSPQPQATLFHNTAGGTMNQLQNSPGSSQQTSGMFLFGIQNNCSQLLTSGPATLPDQLMAISQPGQPQNEGQPPVTTLLSQQMPENSPLASSINTNQNIEKIDLLVSLQNQGNNLTGSF
partner: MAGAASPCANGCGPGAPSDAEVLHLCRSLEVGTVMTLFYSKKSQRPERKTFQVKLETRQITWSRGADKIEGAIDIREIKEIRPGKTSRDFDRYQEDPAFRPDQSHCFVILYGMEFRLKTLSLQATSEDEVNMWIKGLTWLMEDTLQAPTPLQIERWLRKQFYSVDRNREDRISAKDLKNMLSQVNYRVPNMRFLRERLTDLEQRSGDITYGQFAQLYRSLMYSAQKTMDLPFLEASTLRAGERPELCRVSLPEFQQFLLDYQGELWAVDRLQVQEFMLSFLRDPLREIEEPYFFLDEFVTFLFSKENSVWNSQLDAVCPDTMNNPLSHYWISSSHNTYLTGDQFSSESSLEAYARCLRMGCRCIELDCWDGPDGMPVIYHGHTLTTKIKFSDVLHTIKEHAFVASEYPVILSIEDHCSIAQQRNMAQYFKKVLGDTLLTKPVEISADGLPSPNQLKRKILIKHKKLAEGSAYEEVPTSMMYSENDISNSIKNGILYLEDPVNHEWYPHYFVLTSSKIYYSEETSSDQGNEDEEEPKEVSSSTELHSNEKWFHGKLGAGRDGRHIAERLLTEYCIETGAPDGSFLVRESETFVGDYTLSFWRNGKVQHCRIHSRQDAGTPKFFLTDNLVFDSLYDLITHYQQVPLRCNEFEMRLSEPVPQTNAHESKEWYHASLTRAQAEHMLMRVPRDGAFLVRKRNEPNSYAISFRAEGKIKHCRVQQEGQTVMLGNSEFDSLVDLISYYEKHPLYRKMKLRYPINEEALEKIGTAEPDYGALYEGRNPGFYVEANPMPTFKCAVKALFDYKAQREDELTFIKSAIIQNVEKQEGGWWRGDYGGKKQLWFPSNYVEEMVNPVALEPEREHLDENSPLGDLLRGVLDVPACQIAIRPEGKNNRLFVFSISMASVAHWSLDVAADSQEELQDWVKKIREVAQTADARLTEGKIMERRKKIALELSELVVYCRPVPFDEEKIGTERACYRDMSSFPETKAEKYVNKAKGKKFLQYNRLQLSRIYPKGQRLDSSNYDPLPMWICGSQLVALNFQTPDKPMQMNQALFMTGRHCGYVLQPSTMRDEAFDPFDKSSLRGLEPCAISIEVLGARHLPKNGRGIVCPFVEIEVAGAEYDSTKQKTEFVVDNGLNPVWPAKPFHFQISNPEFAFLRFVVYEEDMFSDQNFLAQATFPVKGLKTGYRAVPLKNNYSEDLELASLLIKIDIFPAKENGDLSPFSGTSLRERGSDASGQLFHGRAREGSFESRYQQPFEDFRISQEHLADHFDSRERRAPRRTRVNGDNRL

Variants of: B1
Conditions: with plcg1_human PLCG1, P19174

Row | effect of a mutation on the interaction | Variant
1 | decreasing interaction | Y143A
